Reference: the supplement of paper PMC7125110
± gives the standard error. Fewer inactive variants are shown than the library holds.

B1: glmS ribozyme (parent)
chain: AUAAAAGCGCCAGAACUACAGAAAUGUAGUUGACGAGGAGGAGGUUUAUCGAAUUUUCGGCGGAUGCCUCCAAA

Assays:
Settings in all cases: with glucosamine-6-phosphate
glucosamine-6-phosphate [1] = variants of: B1; experiment: self-cleavage kobs at 160 uM GlcN6P; higher = faster cleavage; RNA array
In short: (§1)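 Weighted Michaelis–Menten fits across concentrations supplied kcat and KM, based on kobs from one- or two-exponential decay fits to normalised per-tile medians. The data came from barcoded ribozyme variants transcribed in situ by E. coli RNA polymerase on sequenced MiSeq chips and tracked at 37 °C by a hybridised Cy3 probe. Glucosamine-6-phosphate (40 μM to 10 mM) in HEPES/KCl/Mg(OAc)2 buffer was flowed in.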

glucosamine-6-phosphate [2] = variants of: B1; experiment: self-cleavage kobs at 2500 uM GlcN6P; higher = faster cleavage; RNA array
In short: as §1

glucosamine-6-phosphate [3] = variants of: B1; experiment: self-cleavage kobs at 640 uM GlcN6P; higher = faster cleavage; RNA array
In short: as §1

glucosamine-6-phosphate [4] = variants of: B1; experiment: self-cleavage kobs at 10000 uM GlcN6P; higher = faster cleavage; RNA array
In short: as §1

Variant	self-cleavage kobs at 160 uM GlcN6P (glucosamine-6-phosphate [1]) [s⁻¹]	self-cleavage kobs at 2500 uM GlcN6P (glucosamine-6-phosphate [2]) [s⁻¹]	self-cleavage kobs at 640 uM GlcN6P (glucosamine-6-phosphate [3]) [s⁻¹]	self-cleavage kobs at 10000 uM GlcN6P (glucosamine-6-phosphate [4]) [s⁻¹]
A6U C10U	< 1e-05	< 1e-05		
A42U U55A G60A C71G	< 1e-05	< 1e-05	< 1e-05	
G40U G60A U65G	< 1e-05	< 1e-05	< 1e-05	
A42C C58A	< 1e-05		< 1e-05	< 1e-05
U49C C58A G60U	< 1e-05	< 1e-05	< 1e-05	
G44U U49A U54A G62U	< 1e-05	< 1e-05	< 1e-05	
C10A A12U U46A	< 1e-05		< 1e-05	
A14C C50G C70G	0.000127 ± 3.4e-05	0.000126 ± 3.1e-05	0.000437 ± 0.00014	7.94e-05 ± 1.8e-05
G35A U55C	< 1e-05	< 1e-05	< 1e-05	< 1e-05
C16G G35C A39G G60U C61U C68U C71A	< 1e-05	< 1e-05	< 1e-05	
C16U G41C G43C A48U U57C	< 1e-05	< 1e-05		
G13U G21U G37C	< 1e-05			
C16A G41A U56G	< 1e-05		< 1e-05	
A39C G40C A52G	< 1e-05		< 1e-05	
C8U G13U G43A C61G	< 1e-05			
A42C G43C C68A C71A	< 1e-05	< 1e-05		
A15U A39C C58A C70G	< 1e-05			
C8A C16U G29U G62A	< 1e-05		< 1e-05	
G29U C34U U46G U47G G63A	< 1e-05	< 1e-05	< 1e-05	
C16U U55G U69G	9.72e-05 ± 2.1e-05	5.05e-05 ± 1.1e-05	8.62e-05 ± 2.4e-05	4.21e-05 ± 1.4e-05
C10U U46C C70U	< 1e-05			
A6U G35U A42C	< 1e-05		< 1e-05	
C8A G13A G43U G51U	< 1e-05	< 1e-05		
C10U G43C U47C A52C U65C G66A C70G	< 1e-05		< 1e-05	
G51C A53G	< 1e-05	< 1e-05	< 1e-05	
G35A G38A A39G G63C C67U	< 1e-05			
